Results: article PMC7145517

Columns and labels:
[1] = target: Myceliophteria thermophila RbBP5 β-propeller domain (residues 1-347); assay: ITC; conditions: parent: 0.25
[2] = target: Myceliophteria thermophila RbBP5 β-propeller domain (residues 1-347) (Myceliophteria thermophila); assay: ITC; VP-ITC; CtCfp1 RID (350 μM) injected into MtRbBP5 β-propeller (35 μM); 20°C; 50 mM Tris pH 8.0, 200 mM NaCl, 2.5 mM β-mercaptoethanol

Row | Kd [1] [µM] | fold loss in binding against wild-type Cfp1 [2] [fold] | Substance
1 | 4.06 |  | Chaetomium thermophilum Cfp1 RID domain (residues 322-508) Y380A
2 |  | 20 | Chaetomium thermophilum Cfp1 RID domain, Tyr380 substituted by an alanine (domain or fragment)
